Data published in US20200148778A1 (JIANGSU HENGRUI MEDICINE, published 2020).

Tests used:
[1] = target: T1, His-tagged rhesus CD40 (rhesus-CD40-his) recombinant protein (rhesus, UniProt F6SNI1 21-193); test: ELISA, rhesus CD40-his coated
T1 construct: range 21-193; Bought from Acrobiosystems (# CD0-052H7); not shown: His tag
Description: (§1) Binding properties of anti-CD40 antibodies was detected by ELISA assay. The CD40 recombinant protein with his-tag was directly used for coating, after the antibody was added, the binding activity of the antibody to the antigen—was detected by adding a secondary antibody (HRP-conjugated anti-antibody Fc antibody) and HRP substrate TMB.
(§2) A 96-well microtiter plate was coated with 100 μl/well of human or rhesus CD40-his protein at a concentration of 0.5 μg/ml and incubated overnight at 4° C. The plate was rinsed three times with rinsing buffer, 250 μl per well. For each rinsing, the plate was shaken for 10 seconds to ensure sufficient cleaning. 200 μl blocking solution was added in each well and incubated for 2 hours at room temperature. Then the plate was washed three times with 250 μl per well. The plate was shaken for 10 seconds in each rinsing to ensure sufficient cleaning. 100 μl of anti-CD40 antibody to be tested diluted in dilution was added to each well, and incubated for 1 hour at room temperature, then rinsing the plate for three times with 250 μl of rinsing buffer per well. 100 μl of HRP-labeled goat anti-human IgG secondary antibody diluted 1:20000 with diluent was added to each well, and incubated for 1 hour at room temperature. Then the plate was washed three times with 250 μl per well. 100 μl of TMB was added to each well and allowed to react for 15 minutes in the dark. 50 μl of 0.16 M sulfuric acid per well was added. The OD value was measured at 450 nm by Thermo MpμltiSkanFc plate reader and the binding EC50 value of the CD40 antibody to […] was calculated.

[2] = target: T2, His-tagged human CD40 (h-CD40-his) recombinant protein (human, UniProt P25942 21-193); test: ELISA, human CD40-his coated
T2 construct: range 21-193; Bought from Acrobiosystems; also called Human CD40-his; not shown: His tag
Description: as §1, §2

[3] = target: T2, His-tagged human CD40 (h-CD40-his) …; test: Biacore, affinity to human CD40
Source text: (§3) Human antibody captured antibody was covalently coupled to CM5 biosensor chip of Biacore instrument (Biacore X100, GE) according to the method described in the description of Human Antibody Capture Kit (Cat. BR-1008-39, GE), thereby capturing a certain amount of chimeric or humanized antibodies to be tested based on affinity. Then a series of concentration gradient CD40 antigens (purchased from Acrobiosystems) flowed through the surface of chip, and Biacore X100 (GE) was used to detect the reaction signals in real time to obtain the binding and dissociation curves. After the completion of each cycle of dissociation, the biochip was rinsed and regenerated with the regeneration solution provided by the Human Antibody Capture Kit. Amine Coupling Kits (Cat. BR-1000-50, GE) were purchased from GE, and the buffer solution HBS-EP+buffer 1× (pH 7.4), which was obtained from HBS-EP+buffer 10× (Cat. BR-1006-69, GE) by dilution with D. I. Water.

[4] = target: T2, His-tagged human CD40 (h-CD40-his) …; test: Biacore X100, antibody captured by anti-human antibody on CM5 chip, CD40 antigen as analyte, 1:1 model
Source text: as §3

[5] = target: T3, His-tagged mouse CD40 (m-CD40-his) recombinant protein (mouse, UniProt P27512 24-193); test: ELISA, CD40-his coated
T3 construct: range 24-193; Bought from Acrobiosystems; also called Mouse CD40-his; not shown: His tag

[6] = target: human CD40 on HEK293 cells stably transfected with the human CD40 gene (HEK-Blue CD40L cells) (human, UniProt P25942 21-277); test: cell-based or functional assay
human CD40 on HEK293 cells stably transfected with the human CD40 gene (HEK-Blue CD40L cells), sequence (P25942 21-277): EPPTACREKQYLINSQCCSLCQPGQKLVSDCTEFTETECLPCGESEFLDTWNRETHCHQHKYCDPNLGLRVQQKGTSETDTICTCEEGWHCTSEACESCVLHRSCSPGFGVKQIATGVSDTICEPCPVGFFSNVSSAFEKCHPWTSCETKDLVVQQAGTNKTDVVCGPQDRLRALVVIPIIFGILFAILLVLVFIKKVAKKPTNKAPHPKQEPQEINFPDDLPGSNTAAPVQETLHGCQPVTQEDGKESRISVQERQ

T2 sequence (P25942 21-193 limits assumed): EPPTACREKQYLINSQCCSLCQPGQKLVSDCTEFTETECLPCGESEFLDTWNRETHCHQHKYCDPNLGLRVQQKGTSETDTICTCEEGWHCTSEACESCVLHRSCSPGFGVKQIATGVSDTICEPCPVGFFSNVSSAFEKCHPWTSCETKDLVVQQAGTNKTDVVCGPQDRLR
T3 sequence (P27512 24-193 limits assumed): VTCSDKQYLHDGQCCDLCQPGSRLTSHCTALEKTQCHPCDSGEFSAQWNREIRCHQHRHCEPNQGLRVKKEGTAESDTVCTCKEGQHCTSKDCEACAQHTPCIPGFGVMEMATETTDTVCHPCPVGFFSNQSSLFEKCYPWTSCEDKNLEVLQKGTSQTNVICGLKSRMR

Binder | EC50 [1] | EC50 [2] | fold of affinity against the Alligator reference [3] | fold of affinity against the Pfizer reference [3] | Kd [4] | binding result [5] | HEK293-CD40L cells activity assay EC50 [6]
humanized anti-CD40 antibody hu9E5 (H1c heavy chain and L1a light chain) (antibody, human IgG1, kappa, V domains shown, the suffix -25 is not explained; Human IgG1/kappa; also called Hu9E5-25) VH: QVQLVQSGAEVKKPGASVKVSCKASGYILTTYWITWVRQAPGQGLEWMGDIHPGSGSTKYNEKFKSRVTLTVDTSISTAYMELSRLRSEDTAVYYCARRDYWGQGTTVTVSS VL: DIVMTQSPLSLPVTPGEPASISCRSSQNIVNSQGNTYLEWYLQKPGQSPQLLIYKVTNRFSGVPDRFSGSGSGTDFTLKISRVEAEDVGVYYCFQASLVPWTFGGGTKVEIKR | 1.66 ng/mL | 1.65 ng/mL | 9 times | 3 times | 5.3 nM |  | 
humanized anti-CD40 antibody hu2H6 (H1b heavy chain and L1c light chain) (antibody, human IgG1, kappa, V domains shown, the suffix -11 is not explained; Human IgG1/kappa; also called Hu2H6-11) VH: QVQLVQSGAEVKKPGSSVKVSCKASGYAFSDYLIEWVRQAPGQGLEWMGVINPGSGGSNYNEKIKDRVTLTADKSTSTAYMELSSLRSEDTAVYYCARGGGGFTYWGQGTLVTVSS VL: DIQLTQSPSSLSASVGDRVTITCRASQDISNYLNWYQQKPGKTIKLLLNFASRLHSGVPSRFSGSGSGTDFTFTISSLQPEDIATYYCQQGSTLPWTFGGGTKVEIKR | 2.95 ng/mL | 3.68 ng/mL |  |  | 11.2 nM |  | 
human-mouse chimeric antibody 2H6-C (antibody, V domains shown, Variable regions of murine 2H6 ligated to the constant region of human antibody IgG1; made in HEK293 cells) VH: QVQLQQSGAELVRPGTSVKVSCKASGYAFSDYLIEWAKQRPGQGLEWIGVINPGSGGSNYNEKIKDRATLTADKSSSTAYMQLSSLTSEDSAVYFCARGGGGFTYWGQGTLVTVSA VL: EIQLTQTTSSLSASLGDRVTISCRASQDISNYLNWYQQKPDGTIKLLLNFASRLHSGVPSRFSGSGSGTDFFLTISNLEQDDIATYFCQQGSTLPWTFGGGTKLEIK |  | 4.56 ng/mL |  |  | 3.98 nM |  | 
human-mouse chimeric antibody 9E5-C (antibody, V domains shown, Variable regions of murine 9E5 ligated to the constant region of human antibody IgG1; made in HEK293 cells) VH: QVQLQQPGADLVKPGASVKMSCKASGYILTTYWITWVKQRPGQGLEWIGDIHPGSGSTKYNEKFKSKATLTVDTSSSTAYMQLTRLSSEDSAVYYCARRDYWGQGTTLTVSS VL: DVLMTQSPLSLPVSLGDQASISCRSSQNIVNSQGNTYLEWYLQKPGESPKLLIYKVTNRFSGVPDRFSGSGSGTDFTLKISRVEAEDLGVYYCFQASLVPWTFGGGTKLEIK |  | 1.35 ng/mL |  |  | 2.68 nM |  | 

Now from value to binder:

EC50 [1] | EC50 [2] | fold of affinity against the Alligator reference [3] | fold of affinity against the Pfizer reference [3] | Kd [4] | binding result [5] | HEK293-CD40L cells activity assay EC50 [6] | Binder
11.8 ng/mL | 12.9 ng/mL |  |  |  | no binding | 36.5 ng/mL | mouse hybridoma anti-human CD40 antibody 38B4 (antibody, V domains shown, Murine hybridoma antibody) VH: QVRLKQSGAELVRPGASVKVSCKASGYTFTDYYINWVKQRPGQGLEWIAGIYPGTGNTYYNEKFKGKATLTAERSSSTAYMQLTSLTSEDSAVYFCTRRGLPSLCFDYWGQGTTLTVSS VL: DFQMTQTTSSLSASLGDRVTISCSASQGISNYLNWYQQKPDGTVKLLIYYTSSLHSGVPSRFSGSGSGTDYSLTISNLEPEDIATYYCQQYSKLPPTFGGGTKLEIK
9.81 ng/mL | 10 ng/mL |  |  |  | no binding | 14.5 ng/mL | mouse hybridoma anti-human CD40 antibody 1D9 (antibody, V domains shown, Murine hybridoma antibody) VH: QVRLQQSGAELVRPGTSMRVSCKASGYAFTNYLINWVKQRPGQGLEWIGILNPGSGGTNYNENFKDKATLTADKSSNTAYMQLSSLTSEDSAVYFCIRGSPGFAYWGQGTLVTVSA VL: DIQMTQTTSSLSASLGDRVTISCRASQDINIYLNWYQQKPDGTVKLLIYSTSGLHSGVPSRFNGSGSGTDYSLTISNLEQEDIATYFCQQGYTLPYTFGGGTKLEIK
7.21 ng/mL | 7.06 ng/mL |  |  |  | no binding | 15.1 ng/mL | mouse hybridoma anti-human CD40 antibody 2H6 (antibody, V domains shown, Murine hybridoma antibody; also called mouse mAb 2H6) VH: QVQLQQSGAELVRPGTSVKVSCKASGYAFSDYLIEWAKQRPGQGLEWIGVINPGSGGSNYNEKIKDRATLTADKSSSTAYMQLSSLTSEDSAVYFCARGGGGFTYWGQGTLVTVSA VL: EIQLTQTTSSLSASLGDRVTISCRASQDISNYLNWYQQKPDGTIKLLLNFASRLHSGVPSRFSGSGSGTDFFLTISNLEQDDIATYFCQQGSTLPWTFGGGTKLEIK
9.49 ng/mL | 8.81 ng/mL |  |  |  | no binding | 10.9 ng/mL | mouse hybridoma anti-human CD40 antibody 14C10 (antibody, V domains shown, Murine hybridoma antibody) VH: QVQVQQSGAELVRPGTSVKVSCKASGYAFTNYLIEWVKQRPGQGLEWIGVINPEFGGTNYNEKFKGKATLTADKSSSTAYMQLSSLTSEDSAVYFCARGGGGFTYWGQGTLVTVSA VL: HIQMTQTTSSLSASLGDRVTISCRASQDISSHLNWYQQKPDGTVKLLISYTSRLHSGVPSRFSGSGSGADYSLTISNLEQEDIATYFCQQGNTLPWTFGGGTKLEIK
6.7 ng/mL | 6 ng/mL |  |  |  | no binding | 17.1 ng/mL | mouse hybridoma anti-human CD40 antibody 9E5 (antibody, V domains shown, Murine hybridoma antibody; also called mouse 9E5) VH: QVQLQQPGADLVKPGASVKMSCKASGYILTTYWITWVKQRPGQGLEWIGDIHPGSGSTKYNEKFKSKATLTVDTSSSTAYMQLTRLSSEDSAVYYCARRDYWGQGTTLTVSS VL: DVLMTQSPLSLPVSLGDQASISCRSSQNIVNSQGNTYLEWYLQKPGESPKLLIYKVTNRFSGVPDRFSGSGSGTDFTLKISRVEAEDLGVYYCFQASLVPWTFGGGTKLEIK
